Molecular target: SpirNT(A*)-biotin (on streptavidin beads) (Drosophila melanogaster) (UniProt Q9U1K1)
Experiment: TIRF microscopy of actin filaments on protein-coated beads

Chain of SpirNT(A*)-biotin (on streptavidin beads) (Drosophila melanogaster) (Q9U1K1 1-490): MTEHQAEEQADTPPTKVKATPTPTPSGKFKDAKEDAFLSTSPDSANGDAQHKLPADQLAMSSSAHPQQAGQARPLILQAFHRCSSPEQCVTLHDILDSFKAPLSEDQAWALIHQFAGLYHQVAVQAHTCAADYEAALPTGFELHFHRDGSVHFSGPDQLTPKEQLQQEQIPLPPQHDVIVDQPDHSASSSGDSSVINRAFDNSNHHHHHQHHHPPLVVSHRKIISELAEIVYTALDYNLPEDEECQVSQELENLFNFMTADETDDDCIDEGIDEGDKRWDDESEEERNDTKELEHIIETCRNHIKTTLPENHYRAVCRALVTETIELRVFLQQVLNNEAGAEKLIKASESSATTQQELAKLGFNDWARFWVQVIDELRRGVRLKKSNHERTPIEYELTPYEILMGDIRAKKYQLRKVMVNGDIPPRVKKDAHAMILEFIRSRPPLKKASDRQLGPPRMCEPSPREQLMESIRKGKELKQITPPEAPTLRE

actin filaments (Acanthamoeba castellani actin) (natural protein)
koff: 0.011 s⁻¹
